B1: Azoarcus group I ribozyme (parent)
chain: GUGCCUUGCGCCGGGAAACCACGCAAGGGAUGGUGUCAAAUUCGGCGAAACCUAAGCGCCCGCCCGGGCGUAUGGCAACGCCGAGCCAAGCUUCGGCGCCUGCGCCGAUGAAGGUGUAGAGACUAGACGGCACCCACCUAAGGCAAACGCUAUGGUGAAGGCAUAGUCCAGGGAGUGGCGAAAGUCACACAAACCGG

Variants of: B1
Assay: reverse-splicing fitness (ratio to wild type); higher = more active; in vitro selection; Mg2+ level not given
How it was run: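 An in vitro group I ribozyme library with randomized positions was T7-transcribed and gel-purified. In triplicate, 10 pmol RNA in EPPS pH 7.5 was reacted with 50 pmoles of a 30-nt RNA substrate for 1 h at 37 °C across several added MgCl2 levels (1–48 mM), then stopped with EDTA. Products were reverse transcribed from a substrate-complementary primer, PCR-amplified and sequenced (HiSeq 4000). Fitness is a variant's read proportion after selection over that before, normalised to wild type.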

Variant | reverse-splicing fitness
GUGCCUUGCGCCGGGAAACCACGCAAGGGAUGGUGUCAAAUUCGGCGAAACCUAAGCGCCCGCCCGGGCGUAUGGCAACGCUGAGCCAAGCUUCGGCGCCUGCGCCGAUGUAGGUGUAGCGACUAGACGGCACCCACCUAAGGCGAACGGUAUGGUGAAGGCAUAGUCCAGGGAGUGGCGAAAGUCACACAAACCGG | 0.00928
GUGCCUUGCGCCGGGAAACCACGCAAGGGAUGGUGUCAAAUUCGGCGAAACCUAAGCGCCCGCCCGGGCGUAUGGCAACGCUGAGCCAAGCUUCGGCGCCUGCGCCGAUGUAGGUGUAGCGACUAGACGGCACCCACCUAAGGCGAACGGUAUGGUGAAGGCAUAGUCCAGGGAGGGGCGAAAGUCACACAAACCGG | 0.00575
GUGCCUUGCGCCGGGAAACCACGCAAGGGAUGGUGUCAAAUUCGGCGAAACCUAAGCGCCCGCCCGGGCGUAUGGCAACGCUGAGCCAAGCUUCGGCGCCUGCGCCGAUGUAGGUGUAGCGACUAGACGGCACCCACCUAAGGCGAACGGUAUGGUGAAGGCAUAGUCCAGGGAGCGGCGAAAGUCACACAAACCGG | 0.0109
GUGCCUUGCGCCGGGAAACCACGCAAGGGAUGGUGUCAAAUUCGGCGAAACCUAAGCGCCCGCCCGGGCGUAUGGCAACGCUGAGCCAAGCUUCGGCGCCUGCGCCGAUGUAGGUGUAGCGACUAGACGGCACCCACCUAAGGCGAACGGUAUGGUGAAGGCAUAGUCCAGGGAGAGGCGAAAGUCACACAAACCGG | 0.00644
GUGCCUUGCGCCGGGAAACCACGCAAGGGAUGGUGUCAAAUUCGGCGAAACCUAAGCGCCCGCCCGGGCGUAUGGCAACGCUGAGCCAAGCUUCGGCGCCUGCGCCGAUGUAGGUGUAGCGACUAGACGGCACCCACCUAAGGCGAACGAUAUGGUGAAGGCAUAGUCUAGGGAGUGGCGAAAGUCACACAAACCGG | 0.0104
GUGCCUUGCGCCGGGAAACCACGCAAGGGAUGGUGUCAAAUUCGGCGAAACCUAAGCGCCCGCCCGGGCGUAUGGCAACGCUGAGCCAAGCUUCGGCGCCUGCGCCGAUGUAGGUGUAGCGACUAGACGGCACCCACCUAAGGCGAACGUUAUGGUGAAGGCAUAGUCAAGGGAGUGGCGAAAGUCACACAAACCGG | 0.00982
GUGCCUUGCGCCGGGAAACCACGCAAGGGAUGGUGUCAAAUUCGGCGAAACCUAAGCGCCCGCCCGGGCGUAUGGCAACGCUGAGCCAAGCUUCGGCGCCUGCGCCGAUGUAGGUGUAGCGACUAGACGGCACCCACCUAAGGCGAACGAUAUGGUGAAGGCAUAGUCUAGGGAGCGGCGAAAGUCACACAAACCGG | 0.0167
GUGCCUUGCGCCGGGAAACCACGCAAGGGAUGGUGUCAAAUUCGGCGAAACCUAAGCGCCCGCCCGGGCGUAUGGCAACGCUGAGCCAAGCUUCGGCGCCUGCGCCGAUGUAGGUGUAGCGACUAGACGGCACCCACCUAAGGCGAACGAUAUGGUGAAGGCAUAGUCUAGGGAGGGGCGAAAGUCACACAAACCGG | 0.00615
GUGCCUUGCGCCGGGAAACCACGCAAGGGAUGGUGUCAAAUUCGGCGAAACCUAAGCGCCCGCCCGGGCGUAUGGCAACGCUGAGCCAAGCUUCGGCGCCUGCGCCGAUGUAGGUGUAGCGACUAGACGGCACCCACCUAAGGCGAACGAUAUGGUGAAGGCAUAGUCUAGGGAGAGGCGAAAGUCACACAAACCGG | 0.0148
GUGCCUUGCGCCGGGAAACCACGCAAGGGAUGGUGUCAAAUUCGGCGAAACCUAAGCGCCCGCCCGGGCGUAUGGCAACGCUGAGCCAAGCUUCGGCGCCUGCGCCGAUGUAGGUGUAGCGACUAGACGGCACCCACCUAAGGCGAACGGUAUGGUGAAGGCAUAGUCUAGGGAGAGGCGAAAGUCACACAAACCGG | 0.0113
GUGCCUUGCGCCGGGAAACCACGCAAGGGAUGGUGUCAAAUUCGGCGAAACCUAAGCGCCCGCCCGGGCGUAUGGCAACGCUGAGCCAAGCUUCGGCGCCUGCGCCGAUGUAGGUGUAGCGACUAGACGGCACCCACCUAAGGCGAACGGUAUGGUGAAGGCAUAGUCUAGGGAGGGGCGAAAGUCACACAAACCGG | 0.00719
GUGCCUUGCGCCGGGAAACCACGCAAGGGAUGGUGUCAAAUUCGGCGAAACCUAAGCGCCCGCCCGGGCGUAUGGCAACGCUGAGCCAAGCUUCGGCGCCUGCGCCGAUGUAGGUGUAGCGACUAGACGGCACCCACCUAAGGCGAACGGUAUGGUGAAGGCAUAGUCUAGGGAGCGGCGAAAGUCACACAAACCGG | 0.0128
GUGCCUUGCGCCGGGAAACCACGCAAGGGAUGGUGUCAAAUUCGGCGAAACCUAAGCGCCCGCCCGGGCGUAUGGCAACGCUGAGCCAAGCUUCGGCGCCUGCGCCGAUGUAGGUGUAGCGACUAGACGGCACCCACCUAAGGCGAACGGUAUGGUGAAGGCAUAGUCGAGGGAGCGGCGAAAGUCACACAAACCGG | 0.0112
GUGCCUUGCGCCGGGAAACCACGCAAGGGAUGGUGUCAAAUUCGGCGAAACCUAAGCGCCCGCCCGGGCGUAUGGCAACGCUGAGCCAAGCUUCGGCGCCUGCGCCGAUGUAGGUGUAGCGACUAGACGGCACCCACCUAAGGCGAACGGUAUGGUGAAGGCAUAGUCGAGGGAGAGGCGAAAGUCACACAAACCGG | 0.00984
GUGCCUUGCGCCGGGAAACCACGCAAGGGAUGGUGUCAAAUUCGGCGAAACCUAAGCGCCCGCCCGGGCGUAUGGCAACGCUGAGCCAAGCUUCGGCGCCUGCGCCGAUGUAGGUGUAGCGACUAGACGGCACCCACCUAAGGCGAACGGUAUGGUGAAGGCAUAGUCGAGGGAGGGGCGAAAGUCACACAAACCGG | 0.00574
